Results: patent US20200079833A1 (AstraZeneca / MedImmune, published 2020)
Starred links: 1 amine or outer side, 2 acyl side, 3 side chain; linkers in the order of their positions; H or OH if unused. Non-standard residues stand in square brackets, D forms with d. Groups on a side chain read outwards from the residue. No end group written: not given here. *: point of attachment. γGlu = O=C(O)[C@H](CCC(=O)[*:2])N[*:1]; Palmitoyl = CCCCCCCCCCCCCCCC(=O)*; αMeF = C[C@](N)(Cc1ccccc1)C(=O)O; αMeK = C[C@](N)(CCCCN)C(=O)O; αMeS = C[C@](N)(CO)C(=O)O; Aib = CC(C)(N)C(=O)O

T1: glucose-dependent insulinotropic peptide (gastric inhibitory polypeptide) receptor (GIPR) (human, UniProt P48546 22-466)
T1 sequence (looked up): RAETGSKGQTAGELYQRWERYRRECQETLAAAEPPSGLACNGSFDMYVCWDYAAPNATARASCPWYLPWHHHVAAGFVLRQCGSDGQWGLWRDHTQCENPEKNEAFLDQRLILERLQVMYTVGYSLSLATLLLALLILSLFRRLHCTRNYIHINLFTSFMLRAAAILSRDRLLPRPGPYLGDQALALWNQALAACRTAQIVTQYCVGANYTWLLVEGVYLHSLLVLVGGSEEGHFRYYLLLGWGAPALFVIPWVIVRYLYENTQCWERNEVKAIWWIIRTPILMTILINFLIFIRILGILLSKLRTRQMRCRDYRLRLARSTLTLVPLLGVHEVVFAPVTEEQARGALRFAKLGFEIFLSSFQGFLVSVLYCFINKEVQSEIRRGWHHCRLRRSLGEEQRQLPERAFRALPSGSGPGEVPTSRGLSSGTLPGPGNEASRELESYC

B1: SEQ ID NO 81 (peptide)
peptide: H[Aib]EGS[αMeF]TSDV[αMeS]S[αMeF]LEGEAK([γGlu-Palmitoyl])[αMeK]E[αMeF]IA[αMeF]VV[αMeK]GG-NH2
modifications: N-terminus assumed
SMILES: CCCCCCCCCCCCCCCC(=O)N[C@@H](CCC(=O)NCCCC[C@H](NC(=O)[C@H](C)NC(=O)[C@H](CCC(=O)O)NC(=O)CNC(=O)[C@H](CCC(=O)O)NC(=O)[C@H](CC(C)C)NC(=O)[C@](C)(Cc1ccccc1)NC(=O)[C@H](CO)NC(=O)[C@](C)(CO)NC(=O)[C@@H](NC(=O)[C@H](CC(=O)O)NC(=O)[C@H](CO)NC(=O)[C@@H](NC(=O)[C@](C)(Cc1ccccc1)NC(=O)[C@H](CO)NC(=O)CNC(=O)[C@H](CCC(=O)O)NC(=O)C(C)(C)NC(=O)[C@@H](N)Cc1c[nH]cn1)[C@@H](C)O)C(C)C)C(=O)N[C@@](C)(CCCCN)C(=O)N[C@@H](CCC(=O)O)C(=O)N[C@@](C)(Cc1ccccc1)C(=O)N[C@H](C(=O)N[C@@H](C)C(=O)N[C@@](C)(Cc1ccccc1)C(=O)N[C@H](C(=O)N[C@H](C(=O)N[C@@](C)(CCCCN)C(=O)NCC(=O)NCC(N)=O)C(C)C)C(C)C)[C@@H](C)CC)C(=O)O
B2: SEQ ID NO 85 (peptide)
peptide: H[Aib]EGS[αMeF]TSDV[αMeS]S[αMeF]LK([γGlu-Palmitoyl])GEAA[αMeK]E[αMeF]IA[αMeF]VV[αMeK]GG-NH2
modifications: N-terminus assumed
SMILES: CCCCCCCCCCCCCCCC(=O)N[C@@H](CCC(=O)NCCCC[C@H](NC(=O)[C@H](CC(C)C)NC(=O)[C@](C)(Cc1ccccc1)NC(=O)[C@H](CO)NC(=O)[C@](C)(CO)NC(=O)[C@@H](NC(=O)[C@H](CC(=O)O)NC(=O)[C@H](CO)NC(=O)[C@@H](NC(=O)[C@](C)(Cc1ccccc1)NC(=O)[C@H](CO)NC(=O)CNC(=O)[C@H](CCC(=O)O)NC(=O)C(C)(C)NC(=O)[C@@H](N)Cc1c[nH]cn1)[C@@H](C)O)C(C)C)C(=O)NCC(=O)N[C@@H](CCC(=O)O)C(=O)N[C@@H](C)C(=O)N[C@@H](C)C(=O)N[C@@](C)(CCCCN)C(=O)N[C@@H](CCC(=O)O)C(=O)N[C@@](C)(Cc1ccccc1)C(=O)N[C@H](C(=O)N[C@@H](C)C(=O)N[C@@](C)(Cc1ccccc1)C(=O)N[C@H](C(=O)N[C@H](C(=O)N[C@@](C)(CCCCN)C(=O)NCC(=O)NCC(N)=O)C(C)C)C(C)C)[C@@H](C)CC)C(=O)O
B3: SEQ ID NO 84 (peptide)
peptide: H[Aib]EGS[αMeF]TSDV[αMeS]S[αMeF]LEK([γGlu-Palmitoyl])EAA[αMeK]E[αMeF]IA[αMeF]VV[αMeK]GG-NH2
modifications: N-terminus assumed
SMILES: CCCCCCCCCCCCCCCC(=O)N[C@@H](CCC(=O)NCCCC[C@H](NC(=O)[C@H](CCC(=O)O)NC(=O)[C@H](CC(C)C)NC(=O)[C@](C)(Cc1ccccc1)NC(=O)[C@H](CO)NC(=O)[C@](C)(CO)NC(=O)[C@@H](NC(=O)[C@H](CC(=O)O)NC(=O)[C@H](CO)NC(=O)[C@@H](NC(=O)[C@](C)(Cc1ccccc1)NC(=O)[C@H](CO)NC(=O)CNC(=O)[C@H](CCC(=O)O)NC(=O)C(C)(C)NC(=O)[C@@H](N)Cc1c[nH]cn1)[C@@H](C)O)C(C)C)C(=O)N[C@@H](CCC(=O)O)C(=O)N[C@@H](C)C(=O)N[C@@H](C)C(=O)N[C@@](C)(CCCCN)C(=O)N[C@@H](CCC(=O)O)C(=O)N[C@@](C)(Cc1ccccc1)C(=O)N[C@H](C(=O)N[C@@H](C)C(=O)N[C@@](C)(Cc1ccccc1)C(=O)N[C@H](C(=O)N[C@H](C(=O)N[C@@](C)(CCCCN)C(=O)NCC(=O)NCC(N)=O)C(C)C)C(C)C)[C@@H](C)CC)C(=O)O
B4: SEQ ID NO 86 (peptide)
peptide: H[Aib]EGS[αMeF]TSDV[αMeS]S[αMeF]K([γGlu-Palmitoyl])EGEAA[αMeK]E[αMeF]IA[αMeF]VV[αMeK]GG-NH2
modifications: N-terminus assumed
SMILES: CCCCCCCCCCCCCCCC(=O)N[C@@H](CCC(=O)NCCCC[C@H](NC(=O)[C@](C)(Cc1ccccc1)NC(=O)[C@H](CO)NC(=O)[C@](C)(CO)NC(=O)[C@@H](NC(=O)[C@H](CC(=O)O)NC(=O)[C@H](CO)NC(=O)[C@@H](NC(=O)[C@](C)(Cc1ccccc1)NC(=O)[C@H](CO)NC(=O)CNC(=O)[C@H](CCC(=O)O)NC(=O)C(C)(C)NC(=O)[C@@H](N)Cc1c[nH]cn1)[C@@H](C)O)C(C)C)C(=O)N[C@@H](CCC(=O)O)C(=O)NCC(=O)N[C@@H](CCC(=O)O)C(=O)N[C@@H](C)C(=O)N[C@@H](C)C(=O)N[C@@](C)(CCCCN)C(=O)N[C@@H](CCC(=O)O)C(=O)N[C@@](C)(Cc1ccccc1)C(=O)N[C@H](C(=O)N[C@@H](C)C(=O)N[C@@](C)(Cc1ccccc1)C(=O)N[C@H](C(=O)N[C@H](C(=O)N[C@@](C)(CCCCN)C(=O)NCC(=O)NCC(N)=O)C(C)C)C(C)C)[C@@H](C)CC)C(=O)O
B5: SEQ ID NO 83 (peptide)
peptide: H[Aib]EGS[αMeF]TSDV[αMeS]S[αMeF]LEGK([γGlu-Palmitoyl])AA[αMeK]E[αMeF]IA[αMeF]VV[αMeK]GG-NH2
modifications: N-terminus assumed
SMILES: CCCCCCCCCCCCCCCC(=O)N[C@@H](CCC(=O)NCCCC[C@H](NC(=O)CNC(=O)[C@H](CCC(=O)O)NC(=O)[C@H](CC(C)C)NC(=O)[C@](C)(Cc1ccccc1)NC(=O)[C@H](CO)NC(=O)[C@](C)(CO)NC(=O)[C@@H](NC(=O)[C@H](CC(=O)O)NC(=O)[C@H](CO)NC(=O)[C@@H](NC(=O)[C@](C)(Cc1ccccc1)NC(=O)[C@H](CO)NC(=O)CNC(=O)[C@H](CCC(=O)O)NC(=O)C(C)(C)NC(=O)[C@@H](N)Cc1c[nH]cn1)[C@@H](C)O)C(C)C)C(=O)N[C@@H](C)C(=O)N[C@@H](C)C(=O)N[C@@](C)(CCCCN)C(=O)N[C@@H](CCC(=O)O)C(=O)N[C@@](C)(Cc1ccccc1)C(=O)N[C@H](C(=O)N[C@@H](C)C(=O)N[C@@](C)(Cc1ccccc1)C(=O)N[C@H](C(=O)N[C@H](C(=O)N[C@@](C)(CCCCN)C(=O)NCC(=O)NCC(N)=O)C(C)C)C(C)C)[C@@H](C)CC)C(=O)O
B6: SEQ ID NO 82 (peptide)
peptide: H[Aib]EGS[αMeF]TSDV[αMeS]S[αMeF]LEGEK([γGlu-Palmitoyl])A[αMeK]E[αMeF]IA[αMeF]VV[αMeK]GG-NH2
modifications: N-terminus assumed
SMILES: CCCCCCCCCCCCCCCC(=O)N[C@@H](CCC(=O)NCCCC[C@H](NC(=O)[C@H](CCC(=O)O)NC(=O)CNC(=O)[C@H](CCC(=O)O)NC(=O)[C@H](CC(C)C)NC(=O)[C@](C)(Cc1ccccc1)NC(=O)[C@H](CO)NC(=O)[C@](C)(CO)NC(=O)[C@@H](NC(=O)[C@H](CC(=O)O)NC(=O)[C@H](CO)NC(=O)[C@@H](NC(=O)[C@](C)(Cc1ccccc1)NC(=O)[C@H](CO)NC(=O)CNC(=O)[C@H](CCC(=O)O)NC(=O)C(C)(C)NC(=O)[C@@H](N)Cc1c[nH]cn1)[C@@H](C)O)C(C)C)C(=O)N[C@@H](C)C(=O)N[C@@](C)(CCCCN)C(=O)N[C@@H](CCC(=O)O)C(=O)N[C@@](C)(Cc1ccccc1)C(=O)N[C@H](C(=O)N[C@@H](C)C(=O)N[C@@](C)(Cc1ccccc1)C(=O)N[C@H](C(=O)N[C@H](C(=O)N[C@@](C)(CCCCN)C(=O)NCC(=O)NCC(N)=O)C(C)C)C(C)C)[C@@H](C)CC)C(=O)O

Columns and labels:
Test in all cases: cell-based or functional assay
[1] = biological target: T1, glucose-dependent insulinotropic …
glucagon receptor (GCGR) = glucagon receptor (GCGR) (human, UniProt P47871 26-477)
Sequence of glucagon receptor (GCGR) (P47871 26-477): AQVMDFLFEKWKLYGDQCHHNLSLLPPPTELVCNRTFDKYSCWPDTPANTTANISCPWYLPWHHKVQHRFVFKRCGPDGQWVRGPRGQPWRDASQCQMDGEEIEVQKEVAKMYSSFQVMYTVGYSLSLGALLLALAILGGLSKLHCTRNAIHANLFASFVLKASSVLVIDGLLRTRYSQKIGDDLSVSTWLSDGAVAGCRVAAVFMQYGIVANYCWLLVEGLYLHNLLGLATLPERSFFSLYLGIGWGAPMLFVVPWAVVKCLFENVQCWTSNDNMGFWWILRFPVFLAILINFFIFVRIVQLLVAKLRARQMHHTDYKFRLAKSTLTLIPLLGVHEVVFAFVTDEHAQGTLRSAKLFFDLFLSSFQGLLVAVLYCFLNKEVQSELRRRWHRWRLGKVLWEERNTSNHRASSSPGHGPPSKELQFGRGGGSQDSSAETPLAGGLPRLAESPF

GLP-1 receptor (GLP-1R) = GLP-1 receptor (GLP-1R) (human, UniProt P43220 24-463)

Binder	cAMP Primary assay EC50 GIP-R [1] [nM]	cAMP Primary assay EC50 GIP-R (2nd) [1] [nM]	cAMP Primary assay EC50 Gluc-R (glucagon receptor (GCGR)) [nM]	cAMP Primary assay EC50 Gluc-R (2nd) (glucagon receptor (GCGR)) [nM]	cAMP Mean pM GLP-1R (GLP-1 receptor (GLP-1R)) [pM]	cAMP Primary assay EC50 GLP-1R n1 (GLP-1 receptor (GLP-1R)) [nM]	cAMP Primary assay EC50 GLP-1R n2 (GLP-1 receptor (GLP-1R)) [nM]
B1	27	27	27	27	283	0.37	0.2
B2	28	28	28	28	101	0.066	0.14
B3	27	27	27	27	8	0.0078	0.0081
B4	28	28	28	28	1.5	0.0013	0.0017
B5	28	28	28	28	3.6	0.0032	0.004
B6	27	27	27	27	2.5	0.003	0.002
